Assays:
cyno FcγRIa = molecular target: T1, cyno FcγRIa (cynomolgus monkey, UniProt P12314 16-288 (human entry)); assay: SPR (Biacore T200), antibody captured on Protein L, FcγRIa at 8 nM, pH7.4, 25 C
T1 construct: also called cyFcyRIa; cynomolgus monkey Fc gamma receptor Ia; not shown: C-terminal His-tag
T1 chain: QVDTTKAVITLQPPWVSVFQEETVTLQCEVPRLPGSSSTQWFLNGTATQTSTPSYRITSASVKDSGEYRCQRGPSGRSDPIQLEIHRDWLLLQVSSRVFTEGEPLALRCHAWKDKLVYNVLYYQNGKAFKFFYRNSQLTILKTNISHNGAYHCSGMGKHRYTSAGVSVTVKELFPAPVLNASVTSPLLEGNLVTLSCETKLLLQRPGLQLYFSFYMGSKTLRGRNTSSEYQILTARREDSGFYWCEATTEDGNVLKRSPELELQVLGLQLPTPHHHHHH
Experimental: (§1) Analysis of interaction between antibody and the FcγR prepared as mentioned above was carried out using BIACORE (registered trademark) T200 (GE Healthcare). 150 mMN Sodium chloride and 0.05 w/v % Tween-20 containing 50 mM phosphate buffer (pH7.4) was used as running buffer, and the measurement temperature was set to 25 degrees C. Chip produced by immobilizing Protein L (BioVision) by the amine coupling method to a Series S sensor Chip CM4 (GE Healthcare) was used. After capturing 500 or 1000 resonance unit (RU) of antibodies of interest onto the chip, FcγRs diluted with the running buffer were allowed to interact, and their binding amounts to antibodies were measured. Cyno FcγRIa was diluted to 8 nM, and others were diluted to 1000 nM. Then, antibodies captured onto the chip were washed by 10 mM Glycine-HC, pH1.5, and the chip was regenerated and used repeatedly. The binding amounts of FcγRs were divided by the binding amount of each antibody captured to obtain binding activity using biacore evaluation software, and these values were compared. Furthermore, the relative values of binding activity of COS0098pHv1-SG1077R to each FcγR to COS0098pHv1-SG1 (an antibody having the sequence of a naturally-occurring human IgG1 at positions 234 to 239, 265 to 271, 295, 296, 298, 300, and 324 to 337, according to EU numbering) were calculated.

cyno FcγRIIa3 = molecular target: T2, cyno FcγRIIa3 (cynomolgus monkey); assay: SPR (Biacore T200), antibody captured on Protein L, FcγR at 1000 nM, pH7.4, 25 C
T2 construct: not shown: C-terminal His-tag
T2 chain: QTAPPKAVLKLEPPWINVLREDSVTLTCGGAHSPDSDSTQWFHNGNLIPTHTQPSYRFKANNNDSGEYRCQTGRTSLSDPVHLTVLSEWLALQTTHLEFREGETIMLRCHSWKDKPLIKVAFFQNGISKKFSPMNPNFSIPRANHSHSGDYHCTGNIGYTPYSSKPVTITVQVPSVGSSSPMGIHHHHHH
Experimental: as §1

cyno FcγRIIb = molecular target: T3, cyno FcγRIIb (cynomolgus monkey); assay: as above
T3 construct: also called cyFcyRIIb; not shown: C-terminal His-tag
T3 chain: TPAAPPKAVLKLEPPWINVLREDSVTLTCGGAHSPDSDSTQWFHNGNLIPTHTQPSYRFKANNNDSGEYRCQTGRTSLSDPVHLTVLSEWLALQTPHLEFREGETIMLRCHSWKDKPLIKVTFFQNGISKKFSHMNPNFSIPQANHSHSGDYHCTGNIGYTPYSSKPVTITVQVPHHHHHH
Experimental: as §1

cyno FcγRIIIa(S) = molecular target: T4, cyno FcγRIIIa(S) (cynomolgus monkey, UniProt Q8SPW2 21-206 at identity 1.00)); assay: as above
T4 construct: also called cyFcyRIIIa(S); not shown: C-terminal His-tag
T4 chain: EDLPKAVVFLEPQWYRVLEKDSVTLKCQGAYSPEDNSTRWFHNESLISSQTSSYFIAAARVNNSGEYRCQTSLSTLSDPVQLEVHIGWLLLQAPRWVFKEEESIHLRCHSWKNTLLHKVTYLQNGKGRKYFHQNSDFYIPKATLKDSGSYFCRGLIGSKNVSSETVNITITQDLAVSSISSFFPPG
Experimental: as §1

cyno FcγRIIIa(R) = molecular target: T5, cyno FcγRIIIa(R) (cynomolgus monkey, UniProt Q8SPW2 17-208); assay: as above
T5 construct: also called cyFcyRIIIa(R); not shown: C-terminal His-tag
T5 sequence (Q8SPW2 other isoform, or with tags, fused parts or gaps): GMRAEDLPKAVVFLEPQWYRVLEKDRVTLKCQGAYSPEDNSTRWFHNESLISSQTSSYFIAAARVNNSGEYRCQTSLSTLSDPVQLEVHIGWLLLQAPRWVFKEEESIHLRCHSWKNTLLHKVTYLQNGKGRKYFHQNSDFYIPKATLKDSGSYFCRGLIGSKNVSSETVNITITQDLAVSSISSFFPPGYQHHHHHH
Experimental: as §1

cyno FcγRIIa1 = molecular target: T6, cyno FcγRIIa1 (cynomolgus monkey); assay: as above
T6 construct: also called cyFcyRIIa1; not shown: C-terminal His-tag
T6 chain: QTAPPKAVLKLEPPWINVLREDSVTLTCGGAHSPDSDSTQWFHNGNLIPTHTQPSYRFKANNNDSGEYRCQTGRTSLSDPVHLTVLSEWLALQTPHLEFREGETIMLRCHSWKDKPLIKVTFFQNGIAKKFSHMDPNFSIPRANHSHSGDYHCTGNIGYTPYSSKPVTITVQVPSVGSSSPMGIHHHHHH
Experimental: as §1

cyno FcγRIIa2 = molecular target: T7, cyno FcγRIIa2 (cynomolgus monkey); assay: as above
T7 construct: also called cyFcyRIIa2; not shown: C-terminal His-tag
T7 chain: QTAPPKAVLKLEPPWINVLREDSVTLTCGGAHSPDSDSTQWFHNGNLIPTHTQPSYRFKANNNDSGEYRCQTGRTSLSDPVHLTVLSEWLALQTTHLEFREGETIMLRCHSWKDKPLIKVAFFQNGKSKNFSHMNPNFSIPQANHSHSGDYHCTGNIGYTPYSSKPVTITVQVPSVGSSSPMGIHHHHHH
Experimental: as §1

[1] = molecular target: T8, cyno FcRn complexed with β2-microglobulin (cynomolgus monkey, UniProt Q8SPV9 24-290; Q8SPW0 21-119); assay: SPR (Biacore T200), antibody captured on Protein L, cyno FcRn 0-240 nM as analyte, steady-state analysis, pH6.0, 25 C
T8 construct: also called cynomolgous monkey neonatal Fc receptor
T8 sequence (Q8SPV9 24-290 limits assumed, chain 1 of 2): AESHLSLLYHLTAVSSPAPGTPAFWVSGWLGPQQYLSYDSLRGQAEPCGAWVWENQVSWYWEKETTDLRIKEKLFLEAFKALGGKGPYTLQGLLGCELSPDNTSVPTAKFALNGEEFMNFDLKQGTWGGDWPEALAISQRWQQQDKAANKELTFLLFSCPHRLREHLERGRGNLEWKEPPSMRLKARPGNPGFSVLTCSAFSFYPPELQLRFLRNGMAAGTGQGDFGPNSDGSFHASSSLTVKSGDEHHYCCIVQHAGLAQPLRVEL
T8 sequence (Q8SPW0 21-119 limits assumed, chain 2 of 2): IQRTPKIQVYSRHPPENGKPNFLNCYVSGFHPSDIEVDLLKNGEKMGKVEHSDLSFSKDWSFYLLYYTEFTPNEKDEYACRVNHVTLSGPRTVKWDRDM
Experimental: Analysis of interaction between each antibody and the FcRn prepared as mentioned above was carried out using BIACORE (registered trademark) T200 (GE Healthcare). Buffer solution containing 150 mM sodium chloride, 0.05 w/v % Tween-20, 50 mM phosphate buffer (pH6.0) was used as running buffer, and the measurement temperature was set to 25 degrees C. Series S sensor Chip CM4 (GE Healthcare) onto which Protein L (BioVision) had been immobilized by the amine coupling method was used. After capturing 400 resonance unit (RU) of antibodies of interest onto the chip via the Protein L, FcRn diluted with the running buffer was allowed to interact, then the KD values were calculated. COS0098pHv1-SG1 was evaluated with 0, 250, 500, 1000, 2000, 4000 nM cyno FcRn, and COS0098pHv1-SG1077R was evaluated with 0, 15, 30, 60, 120, 240 nM cyno FcRn. Then, the chip capturing each antibody was washed by 10 mM Glycine-HCl, pH1.5, regenerated and used repeatedly. The equilibrium dissociation constant (KD (M)) for cyno FcRn was calculated for each antibody based on the steady-state analysis. The Biacore T200 Evaluation Software (GE Healthcare) was used to calculate each parameter.

Relative value of binding activity (cyno FcγRIa): 0.06 fold, relative to COS0098pHv1-SG1 | Binding activity value (Binding amount per 1 RU antibody) (cyno FcγRIIa3): 0.025 RU per 1 RU antibody | Relative value of binding activity (cyno FcγRIIa3): 3.96 fold, relative to COS0098pHv1-SG1 | Binding activity value (Binding amount per 1 RU antibody) (cyno FcγRIIb): 0.082 RU per 1 RU antibody | Relative value of binding activity (cyno FcγRIIb): 2.86 fold, relative to COS0098pHv1-SG1 | Binding activity value (Binding amount per 1 RU antibody) (cyno FcγRIIIa(S)): 0.0084 RU per 1 RU antibody | Relative value of binding activity (cyno FcγRIIIa(S)): 0.07 fold, relative to COS0098pHv1-SG1 | Binding activity value (Binding amount per 1 RU antibody) (cyno FcγRIIIa(R)): 0.006 RU per 1 RU antibody | Relative value of binding activity (cyno FcγRIIIa(R)): 0.05 fold, relative to COS0098pHv1-SG1 | Binding activity value (Binding amount per 1 RU antibody) (cyno FcγRIIa1): 0.0436 RU per 1 RU antibody | Relative value of binding activity (cyno FcγRIIa1): 2.23 fold, relative to COS0098pHv1-SG1 | Binding activity value (Binding amount per 1 RU antibody) (cyno FcγRIIa2): 0.0425 RU per 1 RU antibody | Relative value of binding activity (cyno FcγRIIa2): 2.51 fold, relative to COS0098pHv1-SG1 | Kd [1]: 70 nM
B1: COS0098pHv1-SG1077R (antibody)
heavy: QVQLVQSGAEVKKPGSSVKVSCKASGHTFSKYTVSWIRQPPGKGLEWIGIINTGGSAYPATWAKGRVTITADESTSTAYMELSSLRSEDTAVYYCARGAGDTDYTNLWGQGTLVTVSSASTKGPSVFPLAPSSKSTSGGTAALGCLVKDYFPEPVTVSWNSGALTSGVHTFPAVLQSSGLYSLSSVVTVPSSSLGTQTYICNVNHKPSNTKVDKRVEPKSCDKTHTCPPCPAPELWNGPSVFLFPPKPKDTLMISRTPEVTCVVVDVSDEDPEVKFNWYVDGVEVHNAKTKPREELYNSTYRVVSVLTVLHRDWLNGKEYKCKVSNTALPKPIEKTISKAKGQRREPQVYTLPPSREEMTKNQVSLTCLVKGFYPSDIAVEWESNGQPENNYKTTPPVLDSDGSFFLYSKLTVDKSRWQQGNVFSCSVLHEALHAHTTRKELSLSP
light: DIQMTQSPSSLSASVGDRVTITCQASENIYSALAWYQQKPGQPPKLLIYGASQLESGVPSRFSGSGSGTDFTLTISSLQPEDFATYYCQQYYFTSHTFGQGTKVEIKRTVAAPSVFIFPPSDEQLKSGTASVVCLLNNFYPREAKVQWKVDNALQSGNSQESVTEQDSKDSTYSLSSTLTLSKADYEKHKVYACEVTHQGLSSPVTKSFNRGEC
notes: also called COS009pHv1-SG1077R; COS009BpHv1-SG1077R
